# Data: the DeepSol protein solubility set
# Experiment: soluble on expression in E. coli; label from the status in PepcDB or PDB records
row,Sequence,soluble on expression in E. coli
1,SEADASVDMFSKVLEHQLLQTTKLVEEHLDSEIQKLDQMDEDELERLKEKRLQALRKAQQQKQEWLSKGHGEYREIPSERDFFQEVKESENVVCHFYRDSTFRCKILDRHLAILSKKHLETKFLKLNVEKAPFLCERLHIKVIPTLALLKDGKTQDYVVGFTDLGNTDDFTTETLEWRLGSSDILNYSGNLMEPPFQNQKKFGTNFTKLEKKTIRGKKYDSDSDDD,soluble
2,NAAQALVNVQTSVIPKTAFAARDFVDYSFPQEQKDKEKRKQQWVKNSHTKNSDVQPFAEFAILEIPLFSKSKVDRKIFNHFIQPAIRTYKQLGDSLNIFANPTLDQLKQNRYYVLGYPFLKNKVSSLFLNQTGKKKGIFRRKYTNIPWKTSYYLN,not soluble
3,TKTEALTAEEAAKQYTNSLVEKALKAEKVYATYTQEQVDKIVAAMALAGSEASLQLAKEAHDETGRGVVEDKDTKNHFATEYVYERIKNEKTVGIIGEDKVAGSIEIAAPLGVLAGIVPTTNPTSTTMFKILVALKTRNAIVFAFHPAAQKCSAHAAQILYDAAVKAGAPENIVQWIETPSIANTGALISNKGIASILATGGPGMVNAALKSGNPSMGVGAGNGAVYVDATANLERAVEDLLLSKRFDNGMICATE,not soluble
4,MPVRKAKAVWEGGLRQGKGVMELQSQAFQGPYSYPSRFEEGEGTNPEELIAAAHAGCFSMALAASLEREGFPPKRVSTEARVHLEVVDGKPTLTRIELLTEAEVPGISSEKFLEIAEAAKEGCPVSRALAGVKEVVLTARLV,soluble
5,MKKVLIKGAMALLLSSYSMIVSAEDKTITLMLDWFVNPNHGPVVVAQQKGYFKEEGLNITIQEPADPSMPAKLVAANNIDLAISYQTSLTIDVAAGLPLIRSATLIATPLNTLMVLDNGKINSLADLKGKKIGIAIAGNEEATIGTMLKTENVNFSDVNIINVGWALSSSLASGKVDAIWGGLRNFETNQLALEGYKAKSFFPEEHGVPSYDELVFVANAKTYDADALKKFNHAIEKATQFIVNHPEESWKTFISYAPDTLNNELNKRAWNDTLTRFALRPSAVDLQRYDRFSDFMYRHQMIKTQPKAQNFVPVL,not soluble
6,MPGTEKTQHISLTTQVENRLKHQLSIGALKPGARLITKNIAQELGVSITPVREALLRLVSSSALAVAPAQAFMVPEISLESLLEINTIRTALEEMAVVAAAGKITPDREQTLNALLDEFQQALESGVMEKILLANRAFRFEIYHYADMPTLYAMIEQLWVRLGPSLHFLYDNFKLDDYQNGVNLYRKLLNALVTGDKEASRHCLQNVLQQNVATIKNQYFM,not soluble
7,MSLRITGERIYLRPFQIIDANQKLAFHLANKAFFEGYSMERDDRFYTIEEQQSLISRLEDFAASDVEYYYGIFLNDTDELIGTINLFSILRESLQSAFIGYFLDKKHNGNGYATEAVQLIVDFGFDILGLHRIEAGVMPKNERSKQVLLKAGFHLEGLAVQNVRINGTWEDHQVLAIINPGDEGHHHHHH,soluble
8,MAQSKESPDEAKQDEIIFNIGDTINDYEIVSKIDEGGFGQVFKVTKDHKTFYAMKLESNFQVGGSAIKLEINVLSQLPKNTVFPELICGGKRPRYHFLVLELLGDNLKALKAQSPNPSVFSDGTWSRIGIQCLYAMKMMHDSGFVHRDIKPSNFAIGYSTASESRSRRVLLFDFGLARKFVKKEKNLAPIVTKKESKISKSKTLPSKGPSTKSKDLKPGRSKPILNRKAEQMKIKKNFNMLIPPKSIDQSQRTAEEKVDDEEFTFRRARPHTDFRGTFQYASPNAHLQLELGRHDDIWSLMYMVAEFFVELPWTSNEEIALEELKNQSSILRLFSDGKNIVSSWIHDRIFSDKNPSRLTPEMRGQLDEIDKNLKSCNYYSSPKYDIVYQFFKDSMTKAKVTWTTPYDWETIGKSSEDFSKKSNGKRAVWENPGAFFKKGRWDALPLPLQSPHISIRKSSSKHPKPSAKGSKKAVQARIQNFSKEDSVEADEAPTPMLKSTKKDGMGGQKGGLKGSIE,not soluble
9,MGSDKIHHHHHHMDIISSFGFGRKHIAPILSKLMMLYPKLQIHFDTIDNTKDLIQHSIDLDIRIGNEIAPNMIAKKLASNFRILCASPSYLLKHGVPDSIEDLQTHDCLTISERDQSSVLWKFRHASEDVSVHIKPRFVSNNGEIIHQLAIEGHGIIFRSIWDVADELITGQLQHILPEYWQDADVWAVYPSRLKSSSKLQTCILFIQNELLNRLQHVQNLSRGQLISPAVKREPPPEKVFL,not soluble
10,KDIYASMETARREGKSFNTWKKGLVDEMERKGWVAGRDKKLGRGLDGTLLADPKTGEYFGTPRRLNTIYRVNMQAAYSGARYQRMMDNVDNRPYWKYSAVSDSRTRPAHLALNGRVYRYDAPFWATFYPPNGFNCRCTVI,not soluble
11,MGSDKIHHHHHHMTYIALGMAAIGRPHYINIKTIDSPKDLTKAELHAHATAVLDAAYAMGIRHIDTAPGYGIAEEILIDWLRRSGHEDMTVSTKWGYTYTANFEKNPLQHEVKEHSLHVLQQQWLYSRQLLPPLNMYQIHSATSDSGVLNNQGVLDKLFELKEQFGIEIGLTTSGLTQNATIQQALKITNQGKPLFTIFQVTYNVFEQSIADSVALLKNQGARIIIKEGLANGRIFTCADFPQYAPAYALLERLAGKYHVGVDAVALRFCIDALRPLYVLSGAATIVQLKENLLAETFTLQSEELEELKSIHVASEAYWNERKQLKWN,not soluble
12,MKGGLLVDDEFIHGAARSLTVRKTSLFFAGDGFTVYDCKGSLVFRVDSYGGPNTRDTDEVVLMDAHGRCLLTLRRKRPSLRRRWEGYLGERSDGQKPIFGVRRSSIIGRNSVTVEVYGDYQCSEYLIEGSFGARNCTVVEAETRRKVAEIRRKVDASTNVMLGKDVFSLNVKPGFDGAFAMGLVLVLDQIYGDDLLEVGEEQVHPSAEDL,soluble
13,MSAFSAINEEREIERDEFTPGIEPQATWCPGCGDFGVLKALKQAMPEVGKNPDEVALFTGIGCSGKLNSYFNSYGFHTIHGRSLPVARAAKLANPNLEVIAAGGDGDGYGIGGNHTIHTARENHDMTYIVFNNEIFGLTKGQTSPTSPKGHKSKTQPHGSAKSPIRPLSQQLNAGATYIARTAAVNPNQAKEIIAEAIEHDGFAHIDFLTQCPTWNKDAKHYVPYTDVQQSDEFDFDVSDRAEAAEMMRKTEERLYEGEVLTGRMYIEDERPSYGEEKRQIGEMPEEPLAERYFDEDAEWERTYDNLLEHHK,not soluble
14,GQDRFVYTCNECKHHVETRWHCTVCEDYDLCINCYNTKSHTHKMVKWGLGLD,soluble
15,MDIFPGRLYLKKEVETVEGLQEILAISANRCFRCGNTNPFLFGKMTCASCDREDCLYCRNCIVMGRVNSCQKLYYQKADILPERIESCLGWEGTLSPGQKKAASAVVSSIKQKVDMLLWAVAGSGKTEMMFEGMDLALKQGFRICIASPRVDVCLELYPRLQAVFKEIDIVCLYGDSKDKYQGEQFVVATTHQLIRFYDTFQVIFIDEVDAFPYAKDPFLEYAVRKARTKVGSTIIITATPEKKWQQECATGKRNFVKIPARYHRKQLPVPRTCWIGPWKKNLAQGKITLKLINWIKKAELKNQPVLIFFPEIEAMNQFAEALVNYDFTRPVTVHSADQLRKEKVEWLREGKIKLLLTTTILERGVTFKDVQVAVFGSEGRIFTEAALVQIAGRAGRKLTHPTGDVCFFHYGKTTEMNRAITHIKKMNQLGFKEGLLDD,not soluble
